Reference: the supplement of paper PMC10724198
± gives the standard deviation of the averaged measurements.

Tests used:
[1] = tested on: Saccharomyces cerevisiae; test: protein stability index of tFT-peptide fusion (C-terminal peptide) (PSI (0-1 scale)); higher = more stable (slower turnover); conditions: genetic background: wild type; temperature: 30 C
[2] = tested on: Saccharomyces cerevisiae; test: as above
Description: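 MPS profiling in S. cerevisiae of the tFT-X12 degron library: putative degron peptides plus stable controls, 12 aa, fused to the C-terminus of a sfGFP-mCherry timer. Cells are FACS-sorted into 8 mCherry/sfGFP bins and deep-sequenced. PSI runs from 0 (unstable) to 1 (stable). Backgrounds are wild type, das1Δ and doa10Δ at 30 °C, and wild type, das1Δ, cdc34-1 and cdc53-1 at 37 °C; 2-3 technical replicates each.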

[3] = genetic background: cdc34-1, temperature: 37 C
[4] = genetic background: cdc53-1, temperature: 37 C
[5] = genetic background: das1 deletion, temperature: 30 C
[6] = genetic background: das1 deletion, temperature: 37 C
[7] = genetic background: doa10 deletion, temperature: 30 C
[8] = genetic background: wild type, temperature: 30 C
[9] = genetic background: wild type, temperature: 37 C
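Also: PSI is a weighted mean of sequencing reads over stability bins, variants kept only with over 10 reads, mCherry proximal and sfGFP distal, peptide attached via GGGS linker.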

GSVLWISCLIFC
protein stability index [1]: 0.3 ± 0.026
protein stability index [2, 3]: 0.157 ± 0.019
protein stability index [2, 4]: 0.267 ± 0.0085
protein stability index [2, 5]: 0.189 ± 0.035
protein stability index [2, 6]: 0.349 ± 0.0061
protein stability index [2, 7]: 0.1641 ± 0.0013
protein stability index [2, 8]: 0.18 ± 0.027
protein stability index [2, 9]: 0.347 ± 0.038

GTHWARLGWLLA
protein stability index [1]: 0.227 ± 0.11
protein stability index [2, 3]: 0.607 ± 0.03
protein stability index [2, 4]: 0.711 ± 0.036
protein stability index [2, 5]: 0.619 ± 0.019
protein stability index [2, 6]: 0.724 ± 0.022
protein stability index [2, 7]: 0.161 ± 0.0026
protein stability index [2, 8]: 0.176 ± 0.023
protein stability index [2, 9]: 0.379 ± 0.033

GVAFGLLVWLLG
protein stability index [1]: 0.378 ± 0.071
protein stability index [2, 3]: 0.432 ± 0.021
protein stability index [2, 4]: 0.509 ± 0.014
protein stability index [2, 5]: 0.357 ± 0.026
protein stability index [2, 6]: 0.5307 ± 0.0018
protein stability index [2, 7]: 0.304 ± 0.02
protein stability index [2, 8]: 0.326 ± 0.033
protein stability index [2, 9]: 0.484 ± 0.0068

GVGAISLGFSWL
protein stability index [1]: 0.717 ± 0.013
protein stability index [2, 3]: 0.734 ± 0.021
protein stability index [2, 4]: 0.763 ± 0.013
protein stability index [2, 5]: 0.658 ± 0.019
protein stability index [2, 6]: 0.7855 ± 0.0022
protein stability index [2, 7]: 0.652 ± 0.03
protein stability index [2, 8]: 0.67 ± 0.027
protein stability index [2, 9]: 0.7491 ± 0.0035

GWLRHGWWRTVG
protein stability index [1]: 0.313 ± 0.0015
protein stability index [2, 3]: 0.605 ± 0.024
protein stability index [2, 4]: 0.709 ± 0.0069
protein stability index [2, 5]: 0.658 ± 0.024
protein stability index [2, 6]: 0.734 ± 0.011
protein stability index [2, 7]: 0.152 ± 0.0082
protein stability index [2, 8]: 0.17 ± 0.018
protein stability index [2, 9]: 0.4286 ± 0.00089

GWMLVVWCGVFG
protein stability index [1]: 0.275 ± 0.03
protein stability index [2, 3]: 0.174 ± 0.01
protein stability index [2, 4]: 0.235 ± 0.0027
protein stability index [2, 5]: 0.216 ± 0.035
protein stability index [2, 6]: 0.338 ± 0.011
protein stability index [2, 7]: 0.192 ± 0.011
protein stability index [2, 8]: 0.195 ± 0.031
protein stability index [2, 9]: 0.295 ± 0.0069

GYAFPPPHRVRT
protein stability index [1]: 0.741 ± 0.025
protein stability index [2, 3]: 0.654 ± 0.073
protein stability index [2, 4]: 0.7419 ± 0.0073
protein stability index [2, 5]: 0.669 ± 0.023
protein stability index [2, 6]: 0.7288 ± 0.0051
protein stability index [2, 7]: 0.6865 ± 0.0043
protein stability index [2, 8]: 0.652 ± 0.029
protein stability index [2, 9]: 0.702 ± 0.016

GYLVFTLRWLRG
protein stability index [1]: 0.461 ± 0.06
protein stability index [2, 3]: 0.384 ± 0.038
protein stability index [2, 4]: 0.491 ± 0.035
protein stability index [2, 5]: 0.343 ± 0.027
protein stability index [2, 6]: 0.507 ± 0.016
protein stability index [2, 7]: 0.271 ± 0.026
protein stability index [2, 8]: 0.305 ± 0.02
protein stability index [2, 9]: 0.461 ± 0.0085

GYTVYARRLIMC
protein stability index [1]: 0.146 ± 0.015
protein stability index [2, 3]: 0.215 ± 0.0094
protein stability index [2, 4]: 0.265 ± 0.008
protein stability index [2, 5]: 0.236 ± 0.024
protein stability index [2, 6]: 0.382 ± 0.021
protein stability index [2, 7]: 0.0746 ± 0.0026
protein stability index [2, 8]: 0.0799 ± 0.0087
protein stability index [2, 9]: 0.0893 ± 0.024

GYVVYRRYILIR
protein stability index [1]: 0.141 ± 0.0084
protein stability index [2, 3]: 0.0341 ± 0.0027
protein stability index [2, 4]: 0.0546 ± 0.03
protein stability index [2, 5]: 0.111 ± 0.017
protein stability index [2, 6]: 0.131 ± 0.026
protein stability index [2, 7]: 0.219 ± 0.0094
protein stability index [2, 8]: 0.0783 ± 0.012
protein stability index [2, 9]: 0.0969 ± 0.011

HCSRMIIIFLFL
protein stability index [1]: 0.371 ± 0.035
protein stability index [2, 3]: 0.312 ± 0.044
protein stability index [2, 4]: 0.425 ± 0.042
protein stability index [2, 5]: 0.276 ± 0.045
protein stability index [2, 6]: 0.488 ± 0.039
protein stability index [2, 7]: 0.303 ± 0.061
protein stability index [2, 8]: 0.282 ± 0.013
protein stability index [2, 9]: 0.514 ± 0.038

HLYITGIIRKIT
protein stability index [1]: 0.179 ± 0.036
protein stability index [2, 3]: 0.519 ± 0.027
protein stability index [2, 4]: 0.619 ± 0.11
protein stability index [2, 5]: 0.668 ± 0.054
protein stability index [2, 6]: 0.695 ± 0.016
protein stability index [2, 7]: 0.0875 ± 0.0033
protein stability index [2, 8]: 0.165 ± 0.024
protein stability index [2, 9]: 0.126 ± 0.029

HMVSWTVVRSLM
protein stability index [1]: 0.316 ± 0.011
protein stability index [2, 3]: 0.652 ± 0.065
protein stability index [2, 4]: 0.7014 ± 0.004
protein stability index [2, 5]: 0.603 ± 0.019
protein stability index [2, 6]: 0.76 ± 0.026
protein stability index [2, 7]: 0.138 ± 0.029
protein stability index [2, 8]: 0.144 ± 0.0044
protein stability index [2, 9]: 0.2582 ± 0.00046

HYTSFAVPPLVY
protein stability index [1]: 0.481 ± 0.024
protein stability index [2, 3]: 0.524 ± 0.037
protein stability index [2, 4]: 0.476 ± 0.025
protein stability index [2, 5]: 0.366 ± 0.018
protein stability index [2, 6]: 0.5275 ± 0.0048
protein stability index [2, 7]: 0.3404 ± 0.0026
protein stability index [2, 8]: 0.376 ± 0.018
protein stability index [2, 9]: 0.487 ± 0.011

IFFFQFLWFCLS
protein stability index [1]: 0.315 ± 0.038
protein stability index [2, 3]: 0.296 ± 0.0037
protein stability index [2, 4]: 0.295 ± 0.0059
protein stability index [2, 5]: 0.305 ± 0.036
protein stability index [2, 6]: 0.4186 ± 0.0012
protein stability index [2, 7]: 0.243 ± 0.0098
protein stability index [2, 8]: 0.206 ± 0.028
protein stability index [2, 9]: 0.339 ± 0.015

IFRLVRVVRSSS
protein stability index [1]: 0.386 ± 0.031
protein stability index [2, 3]: 0.669 ± 0.015
protein stability index [2, 4]: 0.688 ± 0.037
protein stability index [2, 5]: 0.6 ± 0.025
protein stability index [2, 6]: 0.714 ± 0.05
protein stability index [2, 7]: 0.19 ± 0.036
protein stability index [2, 8]: 0.236 ± 0.03
protein stability index [2, 9]: 0.476 ± 0.011

IIAVFRCCLRVY
protein stability index [1]: 0.168 ± 0.076
protein stability index [2, 3]: 0.052 ± 0.0087
protein stability index [2, 4]: 0.12 ± 0.022
protein stability index [2, 5]: 0.131 ± 0.034
protein stability index [2, 6]: 0.216 ± 0.003
protein stability index [2, 7]: 0.061 ± 0.02
protein stability index [2, 8]: 0.0911 ± 0.025
protein stability index [2, 9]: 0.152 ± 0.012

IIFWMWVIIRVY
protein stability index [1]: 0.139 ± 0.044
protein stability index [2, 3]: 0.121 ± 0.11
protein stability index [2, 4]: 0.0686 ± 0.034
protein stability index [2, 5]: 0.142 ± 0.04
protein stability index [2, 6]: 0.205 ± 0.0091
protein stability index [2, 7]: 0.114 ± 0.04
protein stability index [2, 8]: 0.108 ± 0.039
protein stability index [2, 9]: 0.116 ± 0.092

IIPAFPFAFLAF
protein stability index [1]: 0.489 ± 0.0067
protein stability index [2, 3]: 0.527 ± 0.0088
protein stability index [2, 4]: 0.526 ± 0.018
protein stability index [2, 5]: 0.415 ± 0.026
protein stability index [2, 6]: 0.565 ± 0.0086
protein stability index [2, 7]: 0.432 ± 0.0046
protein stability index [2, 8]: 0.407 ± 0.017
protein stability index [2, 9]: 0.541 ± 0.0073

IISPLRLLPLFF
protein stability index [1]: 0.388 ± 0.017
protein stability index [2, 3]: 0.634 ± 0.018
protein stability index [2, 4]: 0.73 ± 0.013
protein stability index [2, 5]: 0.61 ± 0.039
protein stability index [2, 6]: 0.724 ± 0.0088
protein stability index [2, 7]: 0.271 ± 0.011
protein stability index [2, 8]: 0.298 ± 0.03
protein stability index [2, 9]: 0.515 ± 0.0086
